Laboratory results: patent US20180259527

T1: recombinant proclotting enzyme of Japanese horseshoe crab (His-tag free)
T1 chain: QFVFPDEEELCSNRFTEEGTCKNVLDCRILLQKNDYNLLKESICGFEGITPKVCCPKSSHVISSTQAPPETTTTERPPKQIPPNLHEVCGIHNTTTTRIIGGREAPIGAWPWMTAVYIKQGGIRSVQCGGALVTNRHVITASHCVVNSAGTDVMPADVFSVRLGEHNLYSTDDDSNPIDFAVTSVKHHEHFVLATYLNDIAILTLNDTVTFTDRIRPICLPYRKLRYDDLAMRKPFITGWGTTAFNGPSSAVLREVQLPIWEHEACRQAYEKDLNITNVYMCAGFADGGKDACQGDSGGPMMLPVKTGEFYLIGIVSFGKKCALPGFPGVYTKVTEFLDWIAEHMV

B1: His-tag-free recombinant factor C of Japanese horseshoe crab Tachypleus tridentatus (protein)
chain: RGVDLGLCDETRFECKCGDPGYVFNVPMKQCTYFYRWRPYCKPCDDLEAKDICPKYKRCQECKAGLDSCVTCPPNKYGTWCSGECQCKNGGICDQRTGACTCRDRYEGAHCEILKGCPLLPSDSQVQEVRNPPDNPQTIDYSCSPGFKLKGVARISCLPNGQWSSFPPKCIRECAKVSSPEHGKVNAPSGNMIEGATLRFSCDSPYYLIGQETLTCQGNGQWSGQIPQCKKLVFCPDLDPVNHAEHQVKIGVEQKYGQFPQGTEVTYTCSGNYFLMGFNTLKCNPDGSWSGSQPSCVKVADREVDCDSKAVDFLDDVGEPVRIHCPAGCSLTAGTVWGTAIYHELSSVCRAAIHAGKLPNSGGAVHVVNNGPYSDFLGSDLNGIKSEELKSLARSFRFDYVSSSTAGRSGCPDGWFEVEENCVYVTSKQRAWERAQGVCTNMAARLAVLDKDLIPSSLTETLRGKGLTTTWIGLHRLDAEKPFVWELMDRSNVVLNDNLTFWASGEPGNETNCVYLDIRDQLQPVWKTKSCFQPSSFACMMDLSDRNKAKCDDPGPLENGHATLHGQSIDGFYAGSSIRYSCEVLHYLSGTETVTCTTNGTWSAPKPRCIKVITCQNPPVPSYGSVEIKPPSRTNSISRVGSPFLRLPRLPLPLARAAKPPPKPRSSQPSTVDLASKVKLPEGHYRVGSRAIYTCESRYYELLGSQGRRCDSNGNWSGRPASCIPVCGRSDSPRSPFIWNGNSTEIGQWPWQAGISRWLADHNMWFLQCGGSLLNEKWIVTAAHCVTYSATAEIIDPSQFKIYLGKYYRDDSRDDDYVQVREALEIHVNPNYDPGNLNFDIALIQLKTPVTLTTRVQPICLPTDITTREHLKEGTLAVVTGWGLNENNTYSEMIQQAVLPVVAASTCEEGYKEADLPLTVTENMFCAGYKKGRYDACSGDSGGPLVFADDSRTERRWVLEGIVSWGSPSGCGKANQYGGFTKVNVFLSWIRQFI
B2: His-tag-attached factor C (factor C of Japanese horseshoe crab of SEQ ID NO:2 with a 6xHis-tag at the C-terminus) (protein)
chain: RGVDLGLCDETRFECKCGDPGYVFNVPMKQCTYFYRWRPYCKPCDDLEAKDICPKYKRCQECKAGLDSCVTCPPNKYGTWCSGECQCKNGGICDQRTGACTCRDRYEGAHCEILKGCPLLPSDSQVQEVRNPPDNPQTIDYSCSPGFKLKGVARISCLPNGQWSSFPPKCIRECAKVSSPEHGKVNAPSGNMIEGATLRFSCDSPYYLIGQETLTCQGNGQWSGQIPQCKKLVFCPDLDPVNHAEHQVKIGVEQKYGQFPQGTEVTYTCSGNYFLMGFNTLKCNPDGSWSGSQPSCVKVADREVDCDSKAVDFLDDVGEPVRIHCPAGCSLTAGTVWGTAIYHELSSVCRAAIHAGKLPNSGGAVHVVNNGPYSDFLGSDLNGIKSEELKSLARSFRFDYVSSSTAGRSGCPDGWFEVEENCVYVTSKQRAWERAQGVCTNMAARLAVLDKDLIPSSLTETLRGKGLTTTWIGLHRLDAEKPFVWELMDRSNVVLNDNLTFWASGEPGNETNCVYLDIRDQLQPVWKTKSCFQPSSFACMMDLSDRNKAKCDDPGPLENGHATLHGQSIDGFYAGSSIRYSCEVLHYLSGTETVTCTTNGTWSAPKPRCIKVITCQNPPVPSYGSVEIKPPSRTNSISRVGSPFLRLPRLPLPLARAAKPPPKPRSSQPSTVDLASKVKLPEGHYRVGSRAIYTCESRYYELLGSQGRRCDSNGNWSGRPASCIPVCGRSDSPRSPFIWNGNSTEIGQWPWQAGISRWLADHNMWFLQCGGSLLNEKWIVTAAHCVTYSATAEIIDPSQFKIYLGKYYRDDSRDDDYVQVREALEIHVNPNYDPGNLNFDIALIQLKTPVTLTTRVQPICLPTDITTREHLKEGTLAVVTGWGLNENNTYSEMIQQAVLPVVAASTCEEGYKEADLPLTVTENMFCAGYKKGRYDACSGDSGGPLVFADDSRTERRWVLEGIVSWGSPSGCGKANQYGGFTKVNVFLSWIRQFIHHHHHH

Molecular target: T1, recombinant proclotting enzyme of …

| Protein | rate of increase in the absorbance at 405 nm (absorbance change rate), proclotting enzyme-activating capacity |
| --- | --- |
| B1 | the His-tag-free factor C showed a remarkable proclotting enzyme-activating capacity irrespective of whether it was obtained by the viral method or by the stably expressing cell line method |
| B2 | activation of the proclotting enzyme was not observed or hardly observed in the His-tag-attached factor C solution containing the equal amount of factor C (0.7 µL), and even in the solution containing about 7 times the amount of factor C (5 µL) |
